Test results as given in a protein production outcome set (Wang et al. 2014).

Assay: label from the status in PepcDB records

Protein production, failed:
MTTPEGGARKPRIGIMGEFSAGKSTLSNLLLGQRILPEQVTATRLPPVWIVQGDKPAQRAALDGSLHPMSLVDLEEISLEETLYVKIGIDAPVLDECDLIDFPGISDPNMPSEVWERMLAEVDSVLWCTHATQAWRQSEAAAWGMVPEAVRQRSLLLITRFDKLTTPLDKLRVQTRVARETEGLFAGVCPISLTEALAAAPDSPEWEASGAETFADALEAVVRAAACGGLPEAMPAQTQLTAPAAPEPAEPSTSAPQPAPGRVMPRRVRPKGETRTPRPSARPQAADQDLSALRREMQET
MTTPGKLNKARVPPYKTAGLGLVLVFALVVALVYLQFRGEFTPKTQLTMLSARAGLVMDPGSKVTYNGVEIGRVDTISEVTRDGESAAKFILDVDPRYIHLIPANVNADIKATTVFGGKYVSLTTPKNPTKRRITPKDVIDVRSVTTEINTLFQTLTSIAEKVDPVKLNLTLSAAAEALTGLGDKFGESIVNANTVLDDLNSRMPQSRHDIQQLAALGDVYADAAPDLFDFLDSSVTTARTINAQQAELDSALLAAAGFGNTTADVFDRGGPYLQRGVADLVPTATLLDTYSPELFCTIRNFYDADPLAKAAAGGGNGYSLRTNSEILSGIGISLLSPLALATNGAAIGIGLVAGLIASPLAVAANLAGALPGIVGGAPNPYTYPENLPRVNARGGPGGAPGCWQPITRDLWPAPYLVMDTGASLAPYNHMEVGSPYAVEYVWGRQVGDNTINP
MTTRRLPRPCRFNPTIHVVLAVLALLLSGLAAFADLPALTGRVVDDAGIIDAGTRAALTQKLADFEKKGSDQIVVATIPSLGGEEIEPYANRLFRFWKLGQAGENNGVLLLVAKNDHKMRIEVGYGLEGTLTDLHTKLIIENDMVPAFRAGDFSGGISKAVDDMVMVLEGNPEELEARGKRNPADSSTPIDPIVTVFLILWATMFFGGLAMAFLPPMFGTKLSPGVYRWLGMTFRYGKGPSGSSGGSGWTTGSSGGGWSSGSSSSGWSSGSSSSGGGFSGGGGSSGGGGSSGSW
MTTRTRNLYILMLANLLMSASMTMIMPFLSLYIETFGDYSNAYVQRWAGYIFGVTFLIAFIFSPIWGRIGDKHGYKGILILTSVGLSICIFLMGFAHSVTYLLILRIFMGVVTGFIGVSNAFIARQTPRNEAGKVLGTLQLGGVTGMLFGPLIGGAMADLFGFKDTFTITGIAMMVAALIVAFGVKEIRTEEQKEAAKVVYSRRAVLKQIFTLRVLFTVMVITALIQIANFSVQPLLALYVGDMTQSDNIAFLSGLAFSATGFGNLVMTRKWGQLGDKYGYEKILNILLIMAAVFVIPQAFATNLWVFIFFRFLFGIAIGGMVPCTTAYIRLAAPGVMQGEMLGYNQSARFLGNVIGPILGGTLAGFTGIPSVFLFMSFMFLVAFFILLYALRSDRKRHVNVD
MTTSATSGTGPTANSMRRALKRARDGVALDVTEAAVLLQARGEDLDDLTASAARVRDAGLEAAGRAGVITYSKSVFIPLTRLCRDKCHYCTFVTVPGKLRRAGHGMFMSPDEVLDIARKGAALGCKEALITLGDKPEDRWPEAREWLDAHGYDDTIAYVRAISIRILEETGLLPHLNPGVMSWTDFQRLKPVAPSMGMMLETTATRLWSEPGGPHHGSPDKEPAVRLRVLEDAGRSSVPFTSGILIGIGETYEERAESLFALRKISRAYHGIQELIIQNFRAKPDTAMRGMPDAELDELIATVAVARHIMGPRACLQAPPNLVDSEYGRLIGAGIDDWGGVSPLTIDHVNPERPWPQIDLLREQSAQAGFELRERLCVYPEFVQRGEPWLDPRLLPHVRALADPASGLAHADATVEGHPWQEPEEAFVAQGRTDLHHSIDTEGRTGDRRDDFDVVYGDWEALREAAAPGMVPERIDTDVRQALATAANDPTRLTDAEALALLHADGPALDALTRIADDVRKAAVGDDVTYIVTRNINFTNVCYTGCRFCAFAQRRTDADAYTLSLEQVADRAQQAWDVGAVEVCMQGGIHPDLPGTAYFDIAKAVKERVPGMHVHAFSPMEVVNGATRTGLSIREWLTAAKEAGLDSIPGTAAEILDDEVRWVLTKGKLPTATWIEVITTAHELGIRSSSTMMYGHVDQPRHWLGHFRTLARIQQQTGGFTEFVTLPFIHTNAPVYLAGIARPGPTTRDNRAVMAMARLLLHPHIPNIQTSWVKLGTEGAAEMLRSGANDLGGTLMEETISRMAGSSYGSYKSVKDLIAVAEAAGRPAKPRTTLYGEVPQERQRAAAASDGHLPELLPVLD
MTTTLTILTPTYNRAYILPKLYASLVEQTNKHFDWMVVDDGSTDNTEQLISEFIADGKINIVYIKQKNGGKHRALNTGAQSINSDYIFIVDSDDYLTNDAIDIILENSHYLKEKNLMGMTLLRGYAPDKVIGEKYPEDFMIKNFNQVRYNMGIKGDKAEVVSTKIFRETPFPEIPGERFMSEGVAWKQLAHKGDSLFINKIVYITEYLEDGLTHSGRLLLIKNPLGAMLNAKLAMTKEFSFKIREKNSLLYIAYGFFAKKKVREIITESGQRKLVRVNLLFGWMI
